Data published in article PMC10361524.
One block for each binder: values may come before it.

What was measured:
[1] = target: IL-20R2D (human), Q6UXL0; test: MST; as a1, but the IL-20R2D variant irradiated at 365 nm (100 mW, 5 min) before use
[2] = target: IL-20R2D Y70NBY + UV (human), Q6UXL0; test: as above
[3] = target: IL-20R2D (human), Q6UXL0; test: MST; IL-20R2D variants labelled with RED-tris-NTA dye on the His tag, held constant at 50 nM; unlabelled IL-24B4 titrated; 50 mM Tris pH 8, 100 mM NaCl, 0.02% pluronic F127; not irradiated
[4] = target: T1, IL-20R2D Y70NBY (human), Q6UXL0; test: as above
T1 chain: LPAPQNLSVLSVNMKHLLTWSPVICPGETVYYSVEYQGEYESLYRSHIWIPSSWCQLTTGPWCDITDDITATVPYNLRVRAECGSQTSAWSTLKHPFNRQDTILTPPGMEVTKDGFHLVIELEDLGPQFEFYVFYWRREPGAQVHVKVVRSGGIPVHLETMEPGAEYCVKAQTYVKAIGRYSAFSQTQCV

[5] = target: T2, IL-20R2D Y70NBY/Y74NBY (human), Q6UXL0; test: as above
T2 chain: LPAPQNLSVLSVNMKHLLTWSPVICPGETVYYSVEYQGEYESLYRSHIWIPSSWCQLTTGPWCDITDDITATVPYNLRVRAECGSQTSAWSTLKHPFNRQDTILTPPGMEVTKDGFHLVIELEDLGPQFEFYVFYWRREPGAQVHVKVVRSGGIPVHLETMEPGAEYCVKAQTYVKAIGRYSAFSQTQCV

[6] = target: T3, IL-20R2D Y74NBY (human), Q6UXL0; test: as above
T3 chain: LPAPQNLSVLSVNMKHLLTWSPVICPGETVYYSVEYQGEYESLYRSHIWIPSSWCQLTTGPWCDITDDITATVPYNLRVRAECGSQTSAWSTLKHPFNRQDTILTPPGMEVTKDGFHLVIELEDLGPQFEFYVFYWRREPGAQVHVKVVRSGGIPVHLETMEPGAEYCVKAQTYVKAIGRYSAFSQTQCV

[7] = target: IL-20R2D (human), Q6UXL0; test: as above; remark: listed apart in the source
[8] = target: T4, IL-24B4 displayed on the yeast surface (version with an N-terminal linker of 17 amino acids, fused to a fluorescent protein) (human); test: flow cytometry on cells; yeast surface display of IL-24B4 (suspension enriched with 0.5% IL-24S yeast); CF640R-labelled IL-20R2D variants at 500, 100, 20, 4 and 0.1 nM in PBSB with 10 nM bilirubin, overnight at 4°C; apparent Kd (affinity and avidity); not irradiated
[9] = target: T4, IL-24B4 displayed on the yeast surface …; test: flow cytometry on cells; as a3, but the labelled IL-20R2D variant UV irradiated (365 nm); apparent Kd

T4 sequence (main, as listed by the source): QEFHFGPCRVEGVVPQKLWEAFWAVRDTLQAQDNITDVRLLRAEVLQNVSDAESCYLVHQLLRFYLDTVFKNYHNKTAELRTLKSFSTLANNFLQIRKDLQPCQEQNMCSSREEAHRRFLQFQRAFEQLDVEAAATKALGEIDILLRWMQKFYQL

Kd [1]: 3700 nM
Kd [2]: 3300 nM
Kd [3]: 630 nM
Kd [4]: > 94000 nM
Kd [5]: 570 nM
Kd [6]: 430 nM
Kd [7]: 500 nM
B1: IL-24B4 (SUMO-cleaved, C-terminal Strep-tag), Q13007 52-206 (ligand)
chain: FHFGPCRVEGVVPQELWEAFWAVRDTLQAQDNITDVRLLRAEVLQNVSDAESCYLVHQLLRFYLDTVFKNYHNKTAELRTLKSFSTLANNFVLIVSDLQPCQEQNMCSSREEAHRRFLQFQRAFEQLDVEAAATKALGEIDILLTWMQKFYQL
modifications: here or on the partner: designed disulfide Cys59-Cys117 (UniProt numbering)

Kd [8]: 2000 nM
B2: IL-20R2D Y70NBY, Q6UXL0 30-233 (receptor)
chain: LPAPQNLSVLSVNMKHLLTWSPVICPGETVYYSVEYQGEYESLYRSHIWIPSSWCQLTTGPWCDITDDITATVPYNLRVRAECGSQTSAWSTLKHPFNRQDTILTPPGMEVTKDGFHLVIELEDLGPQFEFYVFYWRREPGAQVHVKVVRSGGIPVHLETMEPGAEYCVKAQTYVKAIGRYSAFSQTQCV
modifications: here or on the partner: ortho-nitrobenzyl-tyrosine (NBY) at 70

Kd [9]: 7.6 nM
B3: IL-20R2D Y70NBY + UV, Q6UXL0 30-233 (receptor)
chain: LPAPQNLSVLSVNMKHLLTWSPVICPGETVYYSVEYQGEYESLYRSHIWIPSSWCQLTTGPWCDITDDITATVPYNLRVRAECGSQTSAWSTLKHPFNRQDTILTPPGMEVTKDGFHLVIELEDLGPQFEFYVFYWRREPGAQVHVKVVRSGGIPVHLETMEPGAEYCVKAQTYVKAIGRYSAFSQTQCV
modifications: here or on the partner: UV-decaged, Tyr70 restored to canonical tyrosine; designed disulfide Cys59-Cys117

Kd [9]: 9.6 nM
Kd [8]: 5 nM
B4: IL-20R2D, Q6UXL0 30-233 (receptor)
chain: LPAPQNLSVLSVNMKHLLTWSPVICPGETVYYSVEYQGEYESLYRSHIWIPSSWCQLTTGPWCDITDDITATVPYNLRVRAECGSQTSAWSTLKHPFNRQDTILTPPGMEVTKDGFHLVIELEDLGPQFEFYVFYWRREPGAQVHVKVVRSGGIPVHLETMEPGAEYCVKAQTYVKAIGRYSAFSQTQCV
modifications: here or on the partner: designed disulfide Cys59-Cys117 (UniProt numbering)
